The values that follow come from the RNAGym collection of RNA variant scans (doi:10.1073/pnas.2313332121).

B1: TPR t1 (parent)
chain: GACCAAUCUGCCCUCAGAGCUCGAGAACAUCUUCGGAUGCAGAGGAGGCAGGCUUCGGUGGCGCGAUAGCGCCAACGUCCUCAACCUCCAAUGCAUCCCACCACAUGAUGAUGCCUGAAGAGCCUUGGUUUUUUG

This data set covers variants of B1. The data set can be described thus: polymerase ribozyme fitness, log enrichment relative to wild type (log ratio); higher = more active; in vitro selection for triplet polymerase activity. The method in brief: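 Genotype fitness is the logarithm of its enrichment divided by wild-type enrichment, using inverse-variance-weighted averages of replicates. That logarithm is base 2. Enrichment was measured by Illumina sequencing of input and output libraries from one triplicate in vitro selection round, with frozen incubation at −7 °C, on PCR-built, transcribed mutant libraries of each subunit of a heterodimeric triplet polymerase ribozyme, retaining genotypes with ≥10 input reads and ≥1 read per output.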
Consider U7G A18U A121U, for which the “polymerase ribozyme fitness (log ratio)” value is 0.525.
As for U7C C13U C15A G45A C72A, the figure is -0.674.
As for U7A U87A C89G, the figure is -1.86; as for U7G C97G, -3.9.
The same measure for A6U C97G: -3.24; for A6U C40U: 0.421; for A6U C62A A105C: -4.
Consider A6G G42C G52U, for which the “polymerase ribozyme fitness (log ratio)” value was -2.37.
As for U7A G17U A74U G117A A118G, the figure is -4.25; as for U7G G36C, 0.162; as for U7A A41G A66C, -1.26.
For the variant A6U C12U G48A C56A G65U A95U C97G C101A U112G C114U, the “polymerase ribozyme fitness (log ratio)” value was -7.26.
As for A6U U112G U130A, the figure is 0.321.
Regarding U7C C62U A111U U133A, the “polymerase ribozyme fitness (log ratio)” value was -2.88.
As for U7G G17U C28U A90C U106A, the figure is -2.82; as for U7G C13G, 0.14.
Take U7G C79U C124G: the “polymerase ribozyme fitness (log ratio)” value was 2.41.
As for A6U C12U G110U U130C, the figure is -0.715.
On to U7G A29C C72A C82A G120C, for which the “polymerase ribozyme fitness (log ratio)” value was -0.586.
As for U7C C8G C12U G19C C115A G128C, the figure is -1.55.
As to U7G C70G C102U U106A, the “polymerase ribozyme fitness (log ratio)” value is -4.46.
The same measure for A6U C12A U78A C80U C86A G120A: -3.45; for U7A G44A A68G: -5.14.
As for A6U U96C, the figure is -0.215.
The same measure for U7C G48U A50G G61A C89U: -1.71; for U7G G23A: -4.28; for A6G G39A: 0.16.
As for U7G G65U G120A, the “polymerase ribozyme fitness (log ratio)” value is -4.13.
The same measure for A6U G10U C15G C28A A100C C123U: -5.42; for U7A U9C C12U G57C G63U: -0.748; for A6U A50G C97U C115U: -2.3.
As for A6U G42U C89G C115A U125C, the figure is -3.18; as for A6U G10U C53U G122C C123A U125A, -0.333.
The same measure for U7G C12A C97U G117C: -3.54.
A6U C40U A84G C89U G113U G122C: the “polymerase ribozyme fitness (log ratio)” value was -5.19.
The same measure for U7C C34G G69C G120A: -6.41.
The same measure for A6U C8A G44U G107A U112A: -6.05.
As for U7G G45C G52C C79U C102A, the figure is -3.37.
As for A6U G60U C115A G117U, the “polymerase ribozyme fitness (log ratio)” value was -4.41.
As to A6U A74G, the “polymerase ribozyme fitness (log ratio)” value was -0.0819.
As for A6U C11U U14G A46C, the figure is -4.04; as for A6U A37G G71A, -0.537; as for U7A C73G, -1.63.
As for U7A G60C C72U, the figure is 0.796.
The same measure for A6U C22A C40A G61U: -5.59; for A6U U9G A27U C34A G44U C64U: -6.87.
Turning to A6U C62U U112G C115A U131C G135C, the “polymerase ribozyme fitness (log ratio)” value is -1.02.
The same measure for U7A C13U A27G G36U A50C: -2.73; for A6G U112A: 1.64; for U7G A41G C53A C72G C79U A90U A111C: -2.28.
The same measure for U7G U59A U130G: -0.396.
As for A6U G120A, the figure is 0.678; as for U7A C72A G93C, -0.463; as for U7C G19U U54C A66C, -5.92.
Take U7C G19U U54C C72G: the “polymerase ribozyme fitness (log ratio)” value is -3.1.
The same measure for U7C A100U: -0.808; for U7A C49U C53U U59A C76A: -0.656; for U7A U9A C11A G42C G47U G61A A118U: -4.21.
Consider A6U C70U A105U U125A, for which the “polymerase ribozyme fitness (log ratio)” value is -3.91.
As for A6U A41C C79G G113C U133A, the figure is -4.49.
As for A6U U87C U96G G120A G122C, the figure is 0.592; as for U7A A41G U92A, -1.89; as for A6U C88U, -1.02.
As for A6U C88A, the figure is -0.42.
On to A6U U9C, for which the “polymerase ribozyme fitness (log ratio)” value amounted to 0.514.
As for U7G G45A U59G U129A, the figure is -1.45; as for U7C C8U C34G C73U, -5.57.
In the case of A6U C53G C124U U129A, the “polymerase ribozyme fitness (log ratio)” value was -0.73.
As for A6U A41U G61A C62G U112A, the figure is -6.58; as for A6U U54A C62U, 0.317; as for A6U U9C G60C, -0.604.
As for U7G G44U G52C C82G G113A C124U, the figure is -3.
Regarding A6G U87G A121C, the “polymerase ribozyme fitness (log ratio)” value came to 1.92.
The same measure for A6U G44C C72G G110A C115A: -4.85; for A6U C49G G122A: -0.638.
As for U7G C88U, the figure is -0.443; as for U7A C40A G71U C89G A103C C124U, -6.17; as for U7C U106C, -0.478.
The same measure for A6U C86U C88A A121U: 0.522; for A6U C40G A50U: -1.66; for A6G G45C G63C U81C: -1.8.
Regarding U7A A46U A50U G60A G69U U96C, the “polymerase ribozyme fitness (log ratio)” value is -1.72.
As for U7C C8A C62A, the figure is -0.194; as for U7G C53U C62G C101G C102A G120U G127A, -7.14.
For the variant U7G A95G, the “polymerase ribozyme fitness (log ratio)” value worked out at 0.461.
The same measure for U7G G19A G44C C114G G120U: -3.21; for U7A C11A G77A U81G: -1.65; for A6U G42U: -1.17.
As for A6U U106A U116A, the figure is -2.08.
As for A6U G57A G58C A103C A105C, the figure is -6.92; as for U7G U109C, -3.87.
On to U7A C85U U125G, for which the “polymerase ribozyme fitness (log ratio)” value is -1.31.
On to A6U G69A, for which the “polymerase ribozyme fitness (log ratio)” value was -2.02.
The same measure for U7A C12G G17U A105G G120C: -4.05; for A6U A41G: 0.32; for A6U G57A: -0.751.
Turning to U7C U21G G45C G71U, the “polymerase ribozyme fitness (log ratio)” value was -2.5.
The same measure for A6U C73A: 0.0629; for A6U C73U: 0.309; for A6U U106G G113C: -3.9.
The same measure for A6U C123G: 1.29; for U7G C56A A84G U133G G135U: -0.824; for A6G G39A C123U U133A: 0.797.
As for U7C A37U G60A, the figure is -0.133; as for U7G C20A G39A C49G G61C A121G, -3.89.
In the case of U7A C53U, the “polymerase ribozyme fitness (log ratio)” value was -0.0186.
For U7G C40U C72A C86U G93U C102A U106A, the “polymerase ribozyme fitness (log ratio)” value is -5.6.
With U7A C20A A26G C82U U125A, the “polymerase ribozyme fitness (log ratio)” value was -3.24.
As for A6U C11G G48U C56U C64U A83C, the figure is -4.78; as for A6G G48U G63A, -0.619; as for A6U G44U C53U G77U G110A, -3.2.
Consider U7G G42A U81A U109A U130C, for which the “polymerase ribozyme fitness (log ratio)” value was -5.79.
As for U7A C62G C86U, the figure is -1.24.
As for U7A C8G A43C C53A G77A, the figure is -2.07; as for U7C G58C A91C, -1.02.
The same measure for U7A C11A C40U G93C A119U G122U: 0.441; for A6U G45U C101A: -2.89; for U7G C70U G93C: -0.518.
For A6G G69A, the “polymerase ribozyme fitness (log ratio)” value was -2.86.
As for A6U C12U A27U, the figure is -1.6; as for A6U G52A A74U, -0.0324.
The same measure for U7C A29G G63U U81A U132C: -3.82; for A6U C12G G45C A74U C94U: -0.942; for U7A G44C C124G U129G G135U: -0.681.
As for A6U C13U C62U U132A, the figure is -0.793.
Take U7A C11A A26U G63A U112A G127U: the “polymerase ribozyme fitness (log ratio)” value was -3.63.
The same measure for A6U U92A G117U: -5.86; for U7G C70A C72U G93C C115U: -4.07; for A6U C13G A26U A43U C76A C115G: -7.08.
The same measure for U7G C12G G17U U21G G69U C86U C124A: -6.15.
Take U7G G51U G60U A111C: the “polymerase ribozyme fitness (log ratio)” value was -2.64.
The same measure for C8A A18C U21G: -4.13.
With U7C U14G A37C, the “polymerase ribozyme fitness (log ratio)” value is -1.12.
The same measure for A6U C56U: 0.177.
As for U7A C13U G19C G113U, the figure is -1.96; as for A6U C53U U54G G93U U106A U129A, -2.14.
As for A6U U106A, the figure is -0.188; as for A6U G110A, -0.89.
Take U7G C64U C97U G107A U112A: the “polymerase ribozyme fitness (log ratio)” value is -5.51.
The same measure for A6U C12A A103U: -4.89; for A6U A46G C53G G117U: -2.98; for U7G A83U: -0.221.
As for A6U A90U C98G C102U A108U C123G, the figure is -6.7; as for U7G C70G, -2.23.
Consider U7C G93A U132C, for which the “polymerase ribozyme fitness (log ratio)” value was -0.396.
U7A G113U: the “polymerase ribozyme fitness (log ratio)” value was -2.15.
Consider U7A C8A C11G G47U G57U C62U C85A, for which the “polymerase ribozyme fitness (log ratio)” value is -1.82.
The same measure for A6U C79G: -1.17; for U7G A46U G61C U112A: -1.98; for U7A G69U C88G G122A: -1.88.
As to U7G G120C, the “polymerase ribozyme fitness (log ratio)” value amounted to 0.815.
As to U7G A103C G120A, the “polymerase ribozyme fitness (log ratio)” value was -2.83.
The same measure for U7A A41U G71A C85U U87A: -4.06; for U7A A18U U59C: -2.69.
Regarding U7G C102A, the “polymerase ribozyme fitness (log ratio)” value is -0.8.
As for A6U G10C G61A C89A U125A, the figure is -2.03; as for U7C G42C C72A C88U C115U U133A, -0.456; as for A6U C49U C53U C62A G110A, -5.45.
As for U7A C72U G77C G93C G113A G120A, the figure is -2.99; as for U7C C12A C76G, 0.0602; as for U7G G71C A111G C115U G120U, -4.01.
The same measure for U7C C13A C53U: -0.742; for U7G G61U C70G: -5.24.
Regarding U7C G42U G47A, the “polymerase ribozyme fitness (log ratio)” value is -1.32.
Regarding U7C G71A G127U U133G, the “polymerase ribozyme fitness (log ratio)” value is -1.83.
Consider U7A A29U G60U C97U G113C G120U U133A, for which the “polymerase ribozyme fitness (log ratio)” value is -4.07.
The same measure for C8A A16G A43C: -1.35.
